Earlier results in paper PMC4115806.
pKd: −log10 of the molar value.

Target: EPCR (Homo sapiens) (UniProt Q9UNN8)
Sequence (Q9UNN8 18-210): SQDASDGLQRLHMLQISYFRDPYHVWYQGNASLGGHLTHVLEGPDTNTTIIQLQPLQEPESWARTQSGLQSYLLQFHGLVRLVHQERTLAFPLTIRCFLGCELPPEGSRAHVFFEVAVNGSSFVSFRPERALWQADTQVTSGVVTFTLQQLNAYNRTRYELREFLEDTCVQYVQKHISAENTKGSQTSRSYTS

Sequence of protein C (P04070 43-197): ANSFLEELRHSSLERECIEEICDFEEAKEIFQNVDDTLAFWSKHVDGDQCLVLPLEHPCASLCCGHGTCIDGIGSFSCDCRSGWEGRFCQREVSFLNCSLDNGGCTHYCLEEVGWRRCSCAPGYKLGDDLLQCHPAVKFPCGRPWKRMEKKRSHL

protein C (from UniProt P04070)
pKd: 7.52
